Tests used:
[1] = target: T1, full-length nidogen-1 (murine, UniProt P10493 29-1245); assay: SPR; nidogen-1 immobilised by amine coupling on a CM5 chip; laminin variants as mobile analytes; single-cycle kinetics, 25°C, 20 mM HEPES, 100 mM NaCl, 0.05% Tween 20, pH 7.5; 1:1 binding model; apparent Kd
T1 construct: For photo-cross-linking the protein was made in Leu- and Met-depleted medium with photo-Met and photo-Leu; 13-25% of all leucines and methionines were partially replaced; also called entactin; source: HEK 293 EBNA cells, purified (Nickel-NTA Superflow); not shown: (His)6, N-terminal, kept
T1 sequence (looked up): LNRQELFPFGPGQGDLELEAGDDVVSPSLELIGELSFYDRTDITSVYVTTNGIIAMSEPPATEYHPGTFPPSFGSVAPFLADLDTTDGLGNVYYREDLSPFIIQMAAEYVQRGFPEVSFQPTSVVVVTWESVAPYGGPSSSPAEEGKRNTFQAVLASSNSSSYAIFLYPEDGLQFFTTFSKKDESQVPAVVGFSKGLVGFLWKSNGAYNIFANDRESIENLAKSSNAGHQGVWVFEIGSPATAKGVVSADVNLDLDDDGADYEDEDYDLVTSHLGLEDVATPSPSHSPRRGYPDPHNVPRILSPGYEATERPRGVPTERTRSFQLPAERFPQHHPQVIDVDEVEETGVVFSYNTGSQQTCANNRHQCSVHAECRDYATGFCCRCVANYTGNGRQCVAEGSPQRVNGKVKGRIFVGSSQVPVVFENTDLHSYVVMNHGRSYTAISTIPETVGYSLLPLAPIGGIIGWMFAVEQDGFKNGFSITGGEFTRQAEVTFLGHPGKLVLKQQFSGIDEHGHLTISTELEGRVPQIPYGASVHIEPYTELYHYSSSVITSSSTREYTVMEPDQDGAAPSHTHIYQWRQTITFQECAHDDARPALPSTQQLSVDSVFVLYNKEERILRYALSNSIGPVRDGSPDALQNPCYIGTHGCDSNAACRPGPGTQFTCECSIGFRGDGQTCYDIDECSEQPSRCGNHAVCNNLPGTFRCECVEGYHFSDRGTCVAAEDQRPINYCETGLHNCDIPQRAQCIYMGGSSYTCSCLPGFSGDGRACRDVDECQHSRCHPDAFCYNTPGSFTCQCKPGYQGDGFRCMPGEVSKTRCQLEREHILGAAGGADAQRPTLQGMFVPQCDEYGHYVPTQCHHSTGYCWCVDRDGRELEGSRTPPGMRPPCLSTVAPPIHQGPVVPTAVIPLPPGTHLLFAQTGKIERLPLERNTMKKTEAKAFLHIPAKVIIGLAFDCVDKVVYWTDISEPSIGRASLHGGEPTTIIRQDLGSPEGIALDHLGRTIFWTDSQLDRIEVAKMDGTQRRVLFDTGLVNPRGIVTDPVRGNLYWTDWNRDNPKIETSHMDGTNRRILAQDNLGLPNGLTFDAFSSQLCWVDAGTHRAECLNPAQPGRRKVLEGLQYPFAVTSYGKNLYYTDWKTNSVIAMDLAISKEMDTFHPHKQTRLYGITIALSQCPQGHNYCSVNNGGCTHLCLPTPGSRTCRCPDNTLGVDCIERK

[2] = target: laminin γ1 LEb2–4 N836D (murine); assay: ELISA; laminin fragments coated at 10 µg/ml in TBS overnight at 4°C; nidogen-1 0.03 nM to 234 nM in TBS-T/1% BSA, 1 h at room temperature; detected by anti-(His)6 antibody; apparent Kd
[3] = target: laminin γ1 short arm (murine); assay: as above
[4] = target: T1, full-length nidogen-1; assay: as above; conditions: both partners purified

Molecule: laminin γ1 short arm (domain or fragment)
- Kd [1]: 0.012 µM

B1: full-length nidogen-1 (natural protein)
chain: T1 sequence (looked up)
- Kd [2]: 0.034 µM
- Kd [3]: 0.0011 µM

B2: laminin γ1 short arm N836D (domain or fragment)
chain: AMDECADEGGRPQRCMPEFVNAAFNVTVVATNTCGTPPEEYCVQTGVTGVTKSCHLCDAGQQHLQHGAAFLTDYNNQADTTWWQSQTMLAGVQYPNSINLTLHLGKAFDITYVRLKFHTSRPESFAIYKRTREDGPWIPYQYYSGSCENTYSKANRGFIRTGGDEQQALCTDEFSDISPLTGGNVAFSTLEGRPSAYNFDNSPVLQEWVTATDIRVTLNRLNTFGDEVFNEPKVLKSYYYAISDFAVGGRCKCNGHASECVKNEFDKLMCNCKHNTYGVDCEKCLPFFNDRPWRRATAESASESLPCDCNGRSQECYFDPELYRSTGHGGHCTNCRDNTDGAKCERCRENFFRLGNTEACSPCHCSPVGSLSTQCDSYGRCSCKPGVMGDKCDRCQPGFHSLTEAGCRPCSCDLRGSTDECNVETGRCVCKDNVEGFNCERCKPGFFNLESSNPKGCTPCFCFGHSSVCTNAVGYSVYDISSTFQIDEDGWRVEQRDGSEASLEWSSDRQDIAVISDSYFPRYFIAPVKFLGNQVLSYGQNLSFSFRVDRRDTRLSAEDLVLEGAGLRVSVPLIAQGNSYPSETTVKYIFRLHEATDYPWRPALSPFEFQKLLNNLTSIKIRGTYSERTAGYLDDVTLQSARPGPGVPATWVESCTCPVGYGGQFCETCLPGYRRETPSLGPYSPCVLCTCNGHSETCDPETGVCDCRDNTAGPHCEKCSDGYYGDSTLGTSSDCQPCPCPGGSSCAIVPKTKEVVCTHCPTGTAGKRCELCDDGYFGDPLGSNGPVRLCRPCQCNDNIDPDAVGNCNRLTGECLKCIYNTAGFYCDRCKEGFFGNPLAPNPADKCKACACNPYGTVQQQSSCNPVTGQCQCLPHVSGRDCGTCDPGYYNLQSGQGCERCDCHALGSTNGQCDIRTGQCECQPGITGQHCERCETNHFGFGPEGCKPCDCHHEGSL
modifications: Secreted from HEK293 EBNA cells, so disulfide-bonded LE modules and likely N-glycans. Double Strep tag II omitted. Paper numbering (Asn-836) is one higher than UniProt; classical Asn-802 + 33-residue
- Kd [4]: 0.045 µM

B3: laminin γ1 LEb2–4 (domain or fragment, murine)
chain: QPCPCPGGSSCAIVPKTKEVVCTHCPTGTAGKRCELCDDGYFGDPLGSNGPVRLCRPCQCNDNIDPNAVGNCNRLTGECLKCIYNTAGFYCDRCKEGFFGNPLAPNPADKCKACACNPYGTVQQQSSCNPVTGQCQCLPHVSGRDCGTCDPGYYNLQSGQGCER
notes: For photo-cross-linking made with photo-Met and photo-Leu partially incorporated; the limits of LEb2–4 may be marked there; also called laminin γ1 LEb2–4 wild type; LEb2–4 fragment; source: HEK 293 EBNA cells, purified (Strep-Tactin sepharose)
- Kd [4]: 0.0014 µM

Reference: article PMC4227867, “Analysis of Nidogen-1/Laminin γ1 Interaction by Cross-Linking, Mass Spectrometry, and Computational Modeling Reveals Multiple Binding Modes” (PLoS ONE, 2014)
